Assay results reported in the supplement of paper PMC9170038.

Test system: MS2 coat protein
Experiment: apparent KD of MS2 coat protein; designed switch direction (-1 OFF switch, 1 ON switch): 1; higher = weaker reporter binding
Procedure, shortened: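 An oligonucleotide input, 200 uM small-molecule ligand, or no input was present during titration of SNAP-549-labelled MS2 coat protein, which was doubled from 0.7 or 1.5 nM to 3 µM. Designed RNA switches had been transcribed on Illumina chips by stalled E. coli RNA polymerase. Apparent KD per design is the median over clusters of curves fitted to normalised cluster fluorescence.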

[1] = input ligand: microRNA oligo, concentration not stated
[2] = Eterna round: R95, input ligand: FMN 200 uM
[3] = Eterna round: R95, input ligand: microRNA oligo, concentration not stated
[4] = Eterna round: R95, input ligand: none

Sequence | apparent KD of MS2 coat protein (input ligand: FMN 200 uM) | apparent KD of MS2 coat protein [1] | apparent KD of MS2 coat protein (input ligand: none) | apparent KD of MS2 coat protein [2] | apparent KD of MS2 coat protein [3] | apparent KD of MS2 coat protein [4]
GUGGAGGGUUGAGGAUAUUGAAUACAUAUGUUUAACAUGAGGAUCACCCAUGUGGGUUGCGGUAUCGAGAAGGUAAAUUACUGG [salish99_SSNG2_r04_036] (Eterna round: R96, puzzle: Same State NG 2) | 80.9 nM | 79 nM | 86.3 nM | – | – | –
GUGGCUGCCACAGGAUAUACCGUGUAAUUCACGGUAGAAGGGUGAAGCACUCAAAAGAGUGCUAACAUGAGGAUCACCCAUGUG [Quzaon] (Eterna round: R96, puzzle: Same State NG 1) | 1040 nM | 170 nM | 290 nM | – | – | –
GUGGUCAGACAUGAGGAUCACCCAUGUGGAAUAAAUAACGUCAAGGAUAUUCAAUAUAGGAUAUAGAAGAAGGUGAGAUUGGUG (Eterna round: R96, puzzle: Same State NG 3) | – | 142 nM | – | – | – | –
GUGGUCAGACAUGAGGAUCACCCAUGUGGAAUAAAUAAGGAAAAGGAUAUCUAAUAUAGGAUAUAAGAGAAGGUUUGGUUGGUG (Eterna round: R96, puzzle: Same State NG 3) | 74.1 nM | 52.1 nM | 64.7 nM | – | – | –
GUGGUCAGACAUGAGGAUCACCCAUGUGGAAUAAAUAAGGAAUAGGAUAUGGAAUAUAGGAUAUACCAGAAGGAUUGGUUGGUG (Eterna round: R96, puzzle: Same State NG 3) | 96.9 nM | 80.4 nM | 97 nM | – | – | –
GUGGUCAGACAUGAGGAUCACCCAUGUGGAAUAAAUAAGGCAUAGGAUAUGAAAUAUAGGAUAUAUCAGAAGGAUGGGUUGGUG (Eterna round: R96, puzzle: Same State NG 3) | – | 131 nM | – | – | – | –
GUGGUCAGACAUGAGGAUCACCCAUGUGGAAUAAAUAAGGGACAGGAUAUCUAAUAUAGGAUAUAAGAGAAGGGUUGGUUGGUG (Eterna round: R96, puzzle: Same State NG 3) | 69.3 nM | 44.8 nM | 73.5 nM | – | – | –
GUGGUCAGACAUGAGGAUCACCCAUGUGGAAUAAAUAAGGGUCAGGAUAUCUAAUAUAGGAUAUAAGAGAAGGGAUGGUUGGUG (Eterna round: R96, puzzle: Same State NG 3) | 89.2 nM | 89.4 nM | 82.7 nM | – | – | –
GUGGUGGGUUGAGGAUAUUGGUUGUCGUUGUCCCACAUGAGGAUCACCCAUGUGGGUUGUGGUUUUGAGAAGGUUGGUUGCUGG [salish99_SSNG2_r04_052] (Eterna round: R96, puzzle: Same State NG 2) | – | 12.9 nM | – | – | – | –
GUGGUGUAGAUACAGGAUAUGUUGCUCGUAACAUGAGGAUCACCCAUGUAUAUAUGAGAUUAAAUGCAGAAGGGUGCACACCACG [Mat - Same State 2 - Mod of UCT - D76] (puzzle: Same State 2) | – | – | – | 24.6 nM | 18.9 nM | 13.3 nM
GUGGUGUAGAUACAGGAUAUGUUGCUCGUAACAUGAGGAUCACCCAUGUAUCUAUGAGAUUAAAUGCAGAAGGGUGCACACCACA [Mat - Same State 2 - Mod of UCT - D72] (puzzle: Same State 2) | – | – | – | 24 nM | 460 nM | 297 nM
GUUAAACAUGAGGAUCACCCAUGUAAUAAUAUGGGAGGAUAUCAGAAAUUAUGUAUUAAAUGAGAAGGCCUAAUUG [Mat - Same State 1 - Mod of Eli - D80] (puzzle: Same State 1) | – | – | – | 125 nM | 585 nM | 769 nM
GUUAAACAUGAGGAUCACCCAUGUAAUAAUAUGGGAGGAUAUGCGAAAUUAAUUAAUUAAGCAGAAGGCCUAAUUG [Mat - Same State 1 - D98] (puzzle: Same State 1) | – | – | – | 38.3 nM | 148 nM | 217 nM
GUUAAACAUGAGGAUCACCCAUGUCAAUGUAGUCGAGGAUAUGGGCAGCUAUGAGGCGUACUAGAAGGCGAAGAGG [Mat - Same State 1 - Mod of JL - D11] (puzzle: Same State 1) | – | – | – | 121 nM | 236 nM | 334 nM
GUUAAACAUGAGGAUCACCCAUGUCAAUGUAGUCGAGGAUAUGGGCAGCUGUGAGGCGUACUAGAAGGCGAAAAGG [Mat - Same State 1 - Mod of JL - D10] (puzzle: Same State 1) | – | – | – | – | 266 nM | –
GUUACAUGAGGAUCACCCAUGUAUGUGUGGGAGUAAGUGUCUUAGGAUAUCUAGUAAUUAAUUUAAGAGAAGGAAGAUUGUUGU [JMF's solution 54] (Eterna round: R96, puzzle: Same State NG 3) | 133 nM | 93.5 nM | 134 nM | – | – | –

Sequence | apparent KD of MS2 coat protein (input ligand: FMN 200 uM) | apparent KD of MS2 coat protein [1] | apparent KD of MS2 coat protein (input ligand: none) | apparent KD of MS2 coat protein [2] | apparent KD of MS2 coat protein [3] | apparent KD of MS2 coat protein [4]
GUUACAUGAGGAUCACCCAUGUAUGUGUGGGAGUAAGUGUCUUAGGAUAUCUAUCAAUUAAUUUAAGAGAAGGAAGAUUGUUGU [JMF's solution 89] (Eterna round: R96, puzzle: Same State NG 3) | 116 nM | 94 nM | 110 nM | – | – | –
GUUACAUGAGGAUCACCCAUGUAUGUGUGGGAGUAAGUGUCUUAGGAUAUCUAUCAUUUAAAUUAAGAGAAGGAAGAUUGUUGU [JMF's solution 12] (Eterna round: R96, puzzle: Same State NG 3) | 126 nM | 73.5 nM | 118 nM | – | – | –
GUUACAUGAGGAUCACCCAUGUAUGUGUGGGAGUAAGUGUCUUAGGAUAUCUAUGAUUUAAUUCAAGAGAAGGAAGAUUGUUGU [JMF's solution 85] (Eterna round: R96, puzzle: Same State NG 3) | 115 nM | 70.7 nM | 79.5 nM | – | – | –
GUUACAUGAGGAUCACCCAUGUAUGUGUGGGAGUAAGUGUCUUAGGAUAUCUGUUAUUGAAUUUAAGAGAAGGAAGAUUGUUGU [JMF's solution 37] (Eterna round: R96, puzzle: Same State NG 3) | 102 nM | 59.5 nM | 100 nM | – | – | –
GUUAGGAAUCUAGCAAACAUGAGGAUCACCCAUGUUAGUGGGAAGGAUAUGGUACAGAAACUGUACCAGAAGGUCUUAUUGAUU [Omei SS(NG) 3 AV4] (Eterna round: R96, puzzle: Same State NG 3) | 40.2 nM | 33 nM | 59 nM | – | – | –
GUUAGGAAUCUAGCAUACAUGAGGAUCACCCAUGUAAGUGGGAAGGAUAUGGUACAGAAACUGUACCAGAAGGUCUUAUUGAUU [Omei SS(NG) 3 AV6] (Eterna round: R96, puzzle: Same State NG 3) | 45.1 nM | 40.8 nM | 80.1 nM | – | – | –
GUUAUACAUGAGGAUCACCCAUGUCAAUGUAGUCGAGGAUAUGGGUAGCCAUGAGGCGUACUAGAAGGCGAGGAGU [JL-ss1-3.19 ViennaUCT mod] (puzzle: Same State 1) | – | – | – | 130 nM | 68.8 nM | 81.5 nM
GUUCGUUUGAUAGGAUAUCGCUAUACAUGAGGAUCACCCAUGUUUACCACGCUGGUUUUUCGUACCGAGAAGGAUUCUGAUGAU [JL JR sub007 mod 2] (Eterna round: R96, puzzle: Same State NG 2) | – | 30.5 nM | – | – | – | –
UAAAGAAAGCGAGGAUAUAGCCCAUGUGAAGAACUAGAAGGCGCAGACAUGAGGAUCACCCAUGUGUUCAUGAGGAGGAGGACA [Kawasakiqro] (Eterna round: R96, puzzle: Same State NG 1) | 88.6 nM | 51.9 nM | 57.7 nM | – | – | –
UAAAGCGACGUAGGAUAUCCUCUACAUGCGUAAGGAGAAGGAUGCGCAACAUGAGGAUCACCCAUGUAAAACCAGCACUGCUGG [Isaerte] (Eterna round: R96, puzzle: Same State NG 1) | 71.9 nM | 22.5 nM | 36.7 nM | – | – | –
UAAAUAAAGUAAGGAUAUACAUGAGGAUUUCUCGUAGAAGGUACAAGACAUGAGGAUCACCCAUGUAUCGCUCCGUAGAGCGUA [Mat - Same State NG 1 - JL mod - D21] (Eterna round: R96, puzzle: Same State NG 1) | – | 57.7 nM | – | – | – | –
UAAGAACAUGAGGAUCACCCAUGUGGAAAGAACACAGGAUAUCAUAGUAGAACGAGACUAUGAGAAGGGUGACACG [Texeistean] (puzzle: Same State 1) | – | – | – | 595 nM | 214 nM | 666 nM
UAAUUAAAGCAAGGAUAUCACGUCGUUUAGACGUGAGAAGGUGCUCCUUACAUGAGGAUCACCCAUGUAUAACAUGAAUAAUUA [SSNG1/10-B3] (Eterna round: R96, puzzle: Same State NG 1) | 170 nM | 517 nM | 656 nM | – | – | –
UAAUUAAGUCAAGGAUAUCACGUCGAUUAGACGUGAGAAGGUGACCAAUACAUGAGGAUCACCCAUGUAAUACAUGAAUAAUUA [SSNG1/12-B2] (Eterna round: R96, puzzle: Same State NG 1) | 22.7 nM | 53.2 nM | 56.4 nM | – | – | –
UACAAUCUAUCUGAGGAUAUCAUGAUGAUAACAUGAGGAUCACCCAUGUGCAGGAAAACUGCAUAUGAGAAGGCAGAUAGAUUGU [salish99_ss2_r3_074] (puzzle: Same State 2) | – | – | – | 102 nM | 195 nM | 92.4 nM
UACAAUCUAUCUGAGGAUAUCAUGAUUUAAACAUGAGGAUCACCCAUGUGCAGGAAAACUGCAUAUGAGAAGGCAGAUAGAUUGU [salish99_ss2_r3_063] (puzzle: Same State 2) | – | – | – | 135 nM | 297 nM | 241 nM
